Among the data in patent US20180087039A1 are free fibrinogen level in plasma after incubation ex vivo with RTL PA (80 µM) values, retold here.

No end group written: not given here.

For this test, the target named is fibrinogen (free fibrinogen in rat plasma) (rat) (UniProt P06399). Kind of test: cell-based or functional assay.

B1: RTL PA nanofiber (…(K)-C12 peptide amphiphile) (peptide)
peptide: RTLAFVRFKKKAAVV-{K(lauroyl)-NH2}
modifications: also: self-assembled nanofiber
As to B1, the free fibrinogen level in plasma after incubation ex vivo with RTL PA (80 µM) is below 36 mg/dL.
